Patent publication US10144929B2, “Polypeptide inhibitors of Smad3 polypeptide activities” (Mayo Foundation for Medical Education and Research, priority 2016, dated 2018)

Key:
[1] = Liver enzymes and inflammatory cells in blood of saline or BLM mice; assay type: in vivo, C57BL/6 mice; details: 1 mg/kg daily from day 14; blood at days 0, 14, 28
Description: (§1) FIG. 12. C57BL/6 mice received intratracheal instillation of saline or bleomycin (BLM). On day 14, all animals began daily treatment with either vehicle (methocel/saline) or 1 mg/kg of TAT-SH3-2. Blood samples were obtained at days 0, 14, and 28 from the facial vein of unanesthetized animals and assessed for effect on the indicated liver enzymes and inflammatory cells. Quantification of lymphocytes, monocytes, and neutrophils were measured using a VetScan HM5 Analyzer. Serum levels (U/L, units per liter; g/dL, grams per deciliter) of alkaline phosphatase (ALP), alanine aminotransferase (ALT), and albumin were determined using a Piccolo Xpress Chemistry analyzer. Data are presented as mean+/−SEM of n=5.
as §1, with “C57BL/6” for “FIG. 12. C57BL/6”, “analyzer.” for “analyzer. Data are presented as mean+/−SEM of n=5.”

[2] = system: adenovirus-TGFβ models of pulmonary fibrosis; assay: Adenovirus-TGFβ model of pulmonary fibrosis; assay type: in vivo, Mice; details: 1 mg/kg daily from day 21
Description: FIGS. 13A-C. Mice were infected with 1×10^8 pfu adenovirus particles expressing control (GFP) or active TGFβ by tracheal instillation. On day 21, all animals began daily treatment with either vehicle (methocel/saline) or 1 mg/kg of the indicated TAT polypeptide. (A) On days 21 and 35, peripheral blood oxygen was determined. (B and C) Mice were sacrificed on day 39 and processed for lung hydroxyproline content (B) or qPCR expression of the indicated genes (C) (CTGF, connective tissue growth factor; α-SMA, alpha smooth muscle actin; Col Iα1, collagen Iα1). For panels A-C, data reflect mean+/−SEM of n=8 and n=16 for adenovirus-GFP and adenovirus-TGFβ, respectively. *P<0.05, **P<0.001, ***P<0.0005.
Mice were infected with 1×10^8 pfu adenovirus particles expressing control (GFP) or active TGFβ by tracheal instillation. On day 21, all animals began daily treatment with either vehicle (methocel/saline) or 1 mg/kg of the indicated TAT polypeptide. On days 21 and 35, peripheral blood oxygen was determined. Mice were sacrificed on day 39 and processed for lung hydroxyproline content or qPCR expression of CTGF (connective tissue growth factor), α-SMA (alpha smooth muscle actin), and Col Iα1 (collagen Iα1).

[3] = molecular target: T1, pSmad3 (Mus musculus, UniProt Q8BUN5); assay: Nuclear import of pSmad3 (nuclear fractions Western, immunofluorescence) in AKR-2B cells; assay type: cell-based; details: 90 minutes transduction, TGFβ 5 ng/mL 1 hour
T1 construct: endogenous in cells; host or cells: AKR-2B cells
Description: FIGS. 1A-C. SH3 domain of sorting nexin 9 (SNX9) specifically binds pSmad3 and prevents nuclear import. (A) Cartoon depicting domains in full length (FL) SNX9 and constructs used for GST pull down assays. Lysates from AKR-2B cells untreated (−) or stimulated (+) for 45 minutes with 5 ng/mL TGFβ were incubated with GST beads or the indicated fusion polypeptides immobilized on GST beads. Bound polypeptides were eluted and assessed by Western analysis for pSmad3 or pSmad2. Cell lysate reflects signal obtained from 10 μg total protein. (B) AKR-2B cells were transduced for 90 minutes with the indicated concentrations of the TAT-SNX9(SH3) fusion polypeptides. […] Quantitation of nuclear pSmads was performed with Image J software and represents the mean+/−sd of two experiments (Right). […] Quantitation of nuclear Smad3 from 30 cells in each of two experiments (Right).
FIGS. 3A-E. Inhibition of Smad3 signaling by a defined region of the SH3 domain in SNX9. […] (B) Nuclear fractions were prepared and assessed as in FIG. 1B following transduction with the indicated TAT-SNX9(SH3) fusion polypeptide (Left). Quantitation (mean+/−sd) of nuclear pSmad2 or pSmad3 from 2 experiments (Right). (C) Immunofluorescence of nuclear Smad3 was determined as in FIG. 1C from 30 cells in each of two experiments in the absence (−) or presence (+) of 5 ng/mL TGFβ and the indicated TAT-SNX9(SH3) fusion polypeptide (1.5 μM). […]

T1 sequence (Q8BUN5 whole entry): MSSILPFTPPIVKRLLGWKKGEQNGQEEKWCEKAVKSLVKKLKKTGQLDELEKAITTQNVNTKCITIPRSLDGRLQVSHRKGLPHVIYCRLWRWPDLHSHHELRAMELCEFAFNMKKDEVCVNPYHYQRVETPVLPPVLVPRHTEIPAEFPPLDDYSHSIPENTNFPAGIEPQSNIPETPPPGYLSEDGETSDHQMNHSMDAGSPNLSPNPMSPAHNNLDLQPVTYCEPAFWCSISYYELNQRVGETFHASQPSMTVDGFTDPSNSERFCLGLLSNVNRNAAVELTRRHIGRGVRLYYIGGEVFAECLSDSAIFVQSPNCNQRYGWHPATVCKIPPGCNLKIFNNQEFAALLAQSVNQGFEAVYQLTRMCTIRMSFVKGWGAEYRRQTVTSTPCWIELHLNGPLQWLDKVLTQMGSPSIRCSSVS

For “TAT-SH3-2: TAT-SNX9(SH3) fusion polypeptide having SNX9 amino acids 21-51 (31 mer) (TVNEGEIITITNPDVGGGWLEGRNIKGERGL; left off: small tags and cut ends)”, the “inflammatory cell recruitment (lymphocytes, monocytes, neutrophils)” value [1] was “no demonstrable effect”, the “murine liver enzymes (ALP, ALT, albumin)” value [1] was “no demonstrable effect” and the “lung function (peripheral blood oxygen)” value [2] was “stabilized lung function”. The “nuclear import of pSmad3” value [3] was “specifically prevented pSmad3 nuclear import”.
